Measurements reported in patent US20240294608A1, “ELP FUSION PROTEINS FOR CONTROLLED AND SUSTAINED RELEASE” (ImmunoForge Co., LTD., priority 2016, published 2024).

How the values were obtained:
GLP-2 receptor [1] = molecular target: T1, GLP-2 receptor (Homo sapiens, UniProt O95838); assay: Cell-based cAMP potency assay; details: read-out: ECso
T1 sequence (O95838 1-553): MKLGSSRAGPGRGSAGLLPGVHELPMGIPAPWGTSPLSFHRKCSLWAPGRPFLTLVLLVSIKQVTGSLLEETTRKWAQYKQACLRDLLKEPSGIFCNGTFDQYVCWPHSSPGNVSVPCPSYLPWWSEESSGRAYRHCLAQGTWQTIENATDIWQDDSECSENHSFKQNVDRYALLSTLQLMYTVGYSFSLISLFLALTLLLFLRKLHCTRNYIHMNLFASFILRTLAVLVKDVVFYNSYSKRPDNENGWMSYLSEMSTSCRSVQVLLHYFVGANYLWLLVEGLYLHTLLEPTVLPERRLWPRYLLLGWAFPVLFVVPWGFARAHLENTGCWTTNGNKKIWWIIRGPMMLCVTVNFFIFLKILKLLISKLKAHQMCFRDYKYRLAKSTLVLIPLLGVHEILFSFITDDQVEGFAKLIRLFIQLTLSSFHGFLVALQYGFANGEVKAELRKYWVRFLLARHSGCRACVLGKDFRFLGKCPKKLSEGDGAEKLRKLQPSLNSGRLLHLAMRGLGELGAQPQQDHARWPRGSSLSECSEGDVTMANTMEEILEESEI

Male Sprague Dawley rats = assay: Small intestine weight and histology after eleven-day subcutaneous dosing in rats; type: in vivo
Protocol: Dosing was as follows: Vehicle group dosed with saline daily; PE0503 Q1D dosed with PE0503 at 1.3 mg/kg once per day; PE0503 Q2D dosed with PE0503 at 5.1 mg/kg every other day; PE0503 Q4D dosed with PE0503 at 20.5 mg/kg once every four days; GLP-2(A2G) TID dosed […] with 0.1 mg/kg GLP2(A2G).
Male Sprague Dawley rats (200-220 g, n=12/group) were injected subcutaneously with PE0503 or GLP-2 (A2G) peptide over an eleven-day dosing period as shown in Table 5.
The animals were sacrificed on day 12 and a mid-line incision was made, the small intestines were removed, stretched to their maximum length and measured. The fecal material was then flushed from the lumen and the small intestine weight was recorded.

[2] = tested on: normal mice (strain FVB/nj); assay: Linear growth of normal mice, daily injection for three weeks; type: in vivo; details: injected daily for three weeks, mice 3 weeks of age, vs saline; FIG. 3A-C
Protocol: Effect on growth was determined by measuring nose to tail length (A), nose to anus length (B), and tail length (C). The graphs show the mean change in growth versus baseline over the 3 week period.
The above constructs were injected daily in normal mice (strain FVB/nj) for three weeks. The mice were 3 weeks of age at the start of the experiment. The effect on linear growth of the mice was determined by measuring tail length, nose to anal length and nose to tail length after each week of dosing in comparison to a control group injected with normal saline. […] There was no significant effect on body weight.

GLP-2 receptor [3] = assay: cell-based or functional assay

B1: PE0503: GLP-2 sequence with A2G mutation on the N-terminus of the ELP1-120 sequence (protein)
chain: HGDGSFSDEMNTILDNLAARDFINWLIQTKITDVPGVGVPGVGVPGGGVPGAGVPGVGVPGVGVPGVGVPGGGVPGAGVPGGGVPGVGVPGVGVPGGGVPGAGVPGVGVPGVGVPGVGVPGGGVPGAGVPGGGVPGVGVPGVGVPGGGVPGAGVPGVGVPGVGVPGVGVPGGGVPGAGVPGGGVPGVGVPGVGVPGGGVPGAGVPGVGVPGVGVPGVGVPGGGVPGAGVPGGGVPGVGVPGVGVPGGGVPGAGVPGVGVPGVGVPGVGVPGGGVPGAGVPGGGVPGVGVPGVGVPGGGVPGAGVPGVGVPGVGVPGVGVPGGGVPGAGVPGGGVPGVGVPGVGVPGGGVPGAGVPGVGVPGVGVPGVGVPGGGVPGAGVPGGGVPGVGVPGVGVPGGGVPGAGVPGVGVPGVGVPGVGVPGGGVPGAGVPGGGVPGVGVPGVGVPGGGVPGAGVPGVGVPGVGVPGVGVPGGGVPGAGVPGGGVPGVGVPGVGVPGGGVPGAGVPGVGVPGVGVPGVGVPGGGVPGAGVPGGGVPGVGVPGVGVPGGGVPGAGVPGVGVPGVGVPGVGVPGGGVPGAGVPGGGVPGVGVPGVGVPGGGVPGAGVPGVGVPGVGVPGVGVPGGGVPGAGVPGGGVPGWP
modifications: pPE0503-GLP-2(A2G)-ELP1-120
GLP-2 receptor [1]
  EC50: 1.75 nM
Male Sprague Dawley rats; compared to placebo, day 12, even when dosed every fourth day (Q4D), FIG. 4
  small intestine weight: highly significant increase
Male Sprague Dawley rats; compared to vehicle (saline)
  villus height (histological analysis of sections of the small intestine): clear increase

B2: PE9306: CNP37 on N-terminus of ELP1-120 with Cathepsin K site 1 (Arg-Lys-Pro-Arg/Gly); SEQ ID NOs: 125 & 126 (protein)
chain: QEHPNARKYKGANKKGLSKGCFGLKLDRIGSMSGLGCRKPRGVPGVGVPGVGVPGGGVPGAGVPGVGVPGVGVPGVGVPGGGVPGAGVPGGGVPGVGVPGVGVPGGGVPGAGVPGVGVPGVGVPGVGVPGGGVPGAGVPGGGVPGVGVPGVGVPGGGVPGAGVPGVGVPGVGVPGVGVPGGGVPGAGVPGGGVPGVGVPGVGVPGGGVPGAGVPGVGVPGVGVPGVGVPGGGVPGAGVPGGGVPGVGVPGVGVPGGGVPGAGVPGVGVPGVGVPGVGVPGGGVPGAGVPGGGVPGVGVPGVGVPGGGVPGAGVPGVGVPGVGVPGVGVPGGGVPGAGVPGGGVPGVGVPGVGVPGGGVPGAGVPGVGVPGVGVPGVGVPGGGVPGAGVPGGGVPGVGVPGVGVPGGGVPGAGVPGVGVPGVGVPGVGVPGGGVPGAGVPGGGVPGVGVPGVGVPGGGVPGAGVPGVGVPGVGVPGVGVPGGGVPGAGVPGGGVPGVGVPGVGVPGGGVPGAGVPGVGVPGVGVPGVGVPGGGVPGAGVPGGGVPGVGVPGVGVPGGGVPGAGVPGVGVPGVGVPGVGVPGGGVPGAGVPGGGVPGVGVPGVGVPGGGVPGAGVPGVGVPGVGVPGVGVPGGGVPGAGVPGGGVPGWP
modifications: CNP37 CatK ELP1-120 fusion PE9306
[2]
  rate of linear growth (tail length, nose to anal length, nose to tail length): faster rate of linear growth

B3: PE0503 (ligand, part only; not given: ELP carrier, part only)
chain, part: HGDGSFSDEMNTILDNLAARDFINWLIQTKITD
GLP-2 receptor [3]
  EC50, cell-based cAMP potency assay: 1.75 nM
